Results from US20220080036A1 (VANDERBILT UNIVERSITY, published 2022).

T1: IsdA (iron-regulated surface determinant protein A), recombinant (Staphylococcus aureus, UniProt P0C1S5 58-316)
T1 construct: also called recombinant IsdA; Isd antigen
T1 chain: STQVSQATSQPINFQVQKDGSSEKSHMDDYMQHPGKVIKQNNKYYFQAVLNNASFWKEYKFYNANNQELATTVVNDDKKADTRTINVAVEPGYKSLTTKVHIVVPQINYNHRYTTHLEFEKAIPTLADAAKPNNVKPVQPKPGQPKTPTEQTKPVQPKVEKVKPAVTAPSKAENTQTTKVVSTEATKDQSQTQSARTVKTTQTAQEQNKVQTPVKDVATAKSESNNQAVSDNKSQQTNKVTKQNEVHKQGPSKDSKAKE

B1: STAU-64 (antibody, V domains shown)
VH: EVQLVESGGGLVKPGGSLRLSCAASGFSFSYYSMNWVRQAPGKGLEWISSISSSGEYIYYADSVKGRFTISRDNAENSLYLQMNSLRAEDTAVYYCAKVVSQQSLDYWGQGTLVTVSS
VL: DIVMTQSPSSLSVSVGDRVTITCRASQSISTYLNWYQQKPGKAPKLLISGGSNLQSGVPSRFSGSGSGTDFTLTIISLQPEDFATYYCQQSYSTRYSFGQGTKLEIK
B2: STAU-328 (antibody, V domains shown)
VH: QVQLQQWGAGLLKPSETLSLTCAVYGGSFSGYYWSWIRQPPGKGLEWIGEINHSGSTNYNPSLKSRVTISVDTSKNQFSLKLSSVTAADTAVYYCARDVGDRYYFDYWGQGTLVTVSS
VL: QSALTQPASVSGSPGQSITISCTGTSSDVGSYNLVSWYQQHPGKAPKLMIYEGSKRPSGVSNRFSGSKSGNTASLTISGLQAEDEADYYCCSYAGSSTFVVFGGGTKLTVL
B3: STAU-307 (antibody, V domains shown)
VH: QVQLVQSGAEVKKTGSSVKVSCTASGATFNTNDLMWVRQAPGQGLEWMGGIVPVFGRPKYAKKFHGRLIISADEFTTTFYMELTSLTFDDTAIYYCARSGSTESPIQHIDFWGQGTLVTVSS
VL: SYVLTQPPSVSVAPGQTATITCGGDNIATFSVHWYRQKPGQAPVLVVYDDLDRASGIPARFSGSNSGNTATLTISRVEPGDEADYFCQVWEISSDEYVFGPGTSVTVL
B4: STAU-239 (antibody, V domains shown)
VH: QVQLVQSGAEVKKPGSSVKVSCRASGGPFNTYVITWVRQAPGQGLEWMGGIVPVFNTSHSAQKFQGRVKISADTSTNTVYMELTSLTFEDTAVYFCARDGAAAPLNWYDPWGQGTLVTVSS
VL: SYVLTQPPSVSLAPGQTATLTCGGNNIGSKSVHWYQKKPGQAPVLVVYDVRDRPSGIPERFSGSSSENTATLTLSRVEAEDEADYYCQVWESTTSHVIFGGGTKLTVL
B5: STAU-229 (antibody, V domains shown)
VH: EVQLVQSGAEVKKPGATMKISCKVSGYPFTDYYMHWVQQAPGKGLEWMGLIDPEDGETNYAEKFQGRVTITADTSTDTVYMELSSLRSEDTAVYFCAKPHCSSRTCQRVSGYYFGMDVWGQGTLVTVSS
VL: QSALTQPPSASGSPGQSVTISCTGSSNDVGDYNFVSWYQQHPGKPPKLMIYEVTKRPSGVPDRFFGSKSGNTASLTVSGLQADDEADYYCSSYAGGNSVVFGGGTKLTVL
B6: STAU-201 (antibody, V domains shown)
VH: QVQLVQSGPEVKKPGASVKVSCKASGYTFTNYGLTWVRQAPGKGLEWIGWISPYTGRAKFALKFQGRFTLTTDTSTTTAYMEVRSLKSDDSAVYYCAREGIKDASAFDFWGQGTLVTVSS
VL: QSALTQPASVSGSPGQSITISCTGTGSDIGGYNHVSWYHHYPGKAPKLLIFGVTHRPSGVSDRFSGSKSGVTAFLTISGLQAEDEADYYCSSYTDNTSWVFGGGTKVTVL
B7: STAU-407 (antibody, V domains shown)
VH: QLQLQESGPGLVKPSETLSLTCSVSGGSISRTYYYWDWIRQPPGKGLEWIGSVYYSGSTYYNPSLKSRVTMSVDTSKNLFSLKLSSVTAADTAVYYCASHESWQQLISWGQGTLVTVSS
VL: QAVLTQPSSLSASPGASASLTCTLRSGINVGIYRIYWYQQKPGSPPQYLLRYKSDSDKHQGSGVPSRFSGSKDASANAGILLISGLQSEDEADYYCMIWHSSAVAFGGGTKLTVL
B8: STAU-221 (antibody, V domains shown)
VH: QVTLRESGPALVKPTQTLTLTCTFSGFSLTSSGMCVSWIRQPPGKALEWLALIDWDDDKYYITSLKTRLIISKDTSKNQVVLTMTNMDPVDTATYYCARTQSGYSGYYVDYWGQGTLVTVSS
VL: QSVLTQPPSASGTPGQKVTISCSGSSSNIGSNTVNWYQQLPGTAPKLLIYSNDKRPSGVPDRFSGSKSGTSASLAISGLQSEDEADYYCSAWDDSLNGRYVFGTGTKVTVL
B9: STAU-299 (antibody, V domains shown)
VH: QVTLRESGPALVKPTETVTLTCTFSGFSLSTSGMCVTWLRQPPGKALEWLALIDWEDDKYYSTSLKTRFTISKDTSKNQVVLTMTNMDPVDTATYYCARTPTYRGAFDMWGQGTLVTVSS
VL: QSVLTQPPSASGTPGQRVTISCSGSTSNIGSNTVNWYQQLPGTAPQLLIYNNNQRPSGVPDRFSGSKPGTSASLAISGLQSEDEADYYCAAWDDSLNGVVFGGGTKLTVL
B10: STAU-281 (antibody, V domains shown)
VH: QVQLVQSGAEVKRPGSSVRVSCKDSGDSFRRYVINWVRQAPGQGLEWMGGIIPIFDKAKSVQKFQDRLTITADESTSTSYMELSSLTSEDTAVYYCARKEDGRRDDVFDIWGQGTLVTVSS
VL: EIVMTQSPATLSVSLGERATLSCRASHSVGSSLAWYQQKPGLAPRLLIYGVSTRATGIPARFSGSGSATEFTLTISSLQSEDLAAYHCQQYDNWPFTFGQGTKLEIK
B11: STAU-139 (antibody, V domains shown)
VH: EVQLVQSGAEVKKPGESLKISCKGSGYSFTSYWIGWVRQMPGKGLEWMGIIYPGDSDTRYSPSFQGQVTISADKSISTAYLQWSSLKASDTAMYYCARPPGLRGDAFDIWGQGTLVTVSS
VL: QSALTQPPSASGSPGQSVTISCTGTSSDVGGYNYVSWYQQHPGKAPKLMIYEVSKRPSGVPDRFSGSKSGNTASLTVSGLQAEDEADYYCSSYAGSNNLVFGGGTKLTVL
B12: STAU-218 (antibody, V domains shown)
VH: QVTLKESGPVVVKPTETLTLTCTVSDVSLRNVQMGVSWIRQPPGKALEWLAHIFSHDEKAYVTSLENRLTISRDTSNSQVVLTMTNMDPVDTGTYYCARIRSTSGEEEDPFAFWGQGTLVTVSS
VL: DIQMTQSPSSLSASVGDRVTITCRASQSVTTWLAWYQQKPGKAPKLLIYSASSLESGVPSRFSGSGSGTDFTLTISNLQPDDFATYYCQQYRFYWTFGQGTKVESK
B13: STAU-402 (antibody, V domains shown)
VH: QLQLQESGPGLVKPSETLSLTCTVSGGSISSSSYYWGWIRQPPGKGLEWIGSIYYSGSTYYNPSLKSRVTISVDTSKNQFSLKLSSVTAADTAVYYCARPNSSGWSYYFDYWGQGTLVTVSS
VL: QSVLTQPPSVSGAPGQRVTISCTGTSSNIGADYDVHWYQQLPGTAPKLLIYGNINRPSGVPDRFSGSRSGTSASLAITGLQADDEADYYCQSYDSSLSGSVVFGGGTKLTVL
B14: STAU-401 (antibody, V domains shown)
VH: QVQLVQSGPEARKPGTSVKVSCKTSGYTFSSYGIAWVRQAPGQGLEWMGWISGYSDYTIYAQRLQGRVSMTTDPYTSTAYMELRSLRPDDTAVYYCATLSFGELVENKLDFWGQGTLVTVSS
VL: QSVLTQPPSVSGAPGQRVTISCTGTSSNIGADYAVHWYQQLPGTAPKLLIYGTINRPSGVPDRFSGSRSGTSASLAITGLQADDEADYYCQSYDSSLSGSVVFGGGTKLTVL
B15: STAU-389 (antibody, V domains shown)
VH: QVQLVQSGAEVKQSGSSLKVSCKVSGGNLRSYGISWVRQAPGQGLEWMGVIIPIFGAPTYAQKFQGRVTFVADDGNNVVFMELSSLRSEDTAVYYCARDWPSITVAVDAINFAMDVWGQGTLVTVSS
VL: QSALTQPRSVSGSPGQSVTISCTGTNNDVGSYDHVSWYQQHPGKAPKFIIYDVSTRPSGVPDRFSGSKSDNTASLTISGLQAEDEADYYCCSFAGSYTYVFGTGTTVTVL
B16: STAU-399 (antibody, V domains shown)
VH: QVQLVQSGAEVKKPGSSLKVSCKVSGGNLRSYGISWVRQAPGQGLEWMGVIIPIFGTPTYAQKFQGRVTLAADDSNNIVFMELSSLRSEDTAVYYCARDWPSITVAVDATNYGMDVWGQGTLVTVSS
VL: QSALTQPRSVSGSPGQSVTISCTGTSNDVGYYDHVSWYQQHPGKAPKFIIYDVSKRPSGVPDRFSGSKSDNTASLTISGLQAEDEADYYCCSFAGSYTYVFGTGTKVTVL
B17: STAU-280 (antibody, V domains shown)
VH: EVQLVESGGGLVQTGGSLRLSCAASGFTFSRYNMNWVRQAPGKGLEWVSFISATSSSIYYADSVKGRFTISRDNAKNSLDLQMNSLRDEDTAVYFCVREDAAIFGVGSWFDPWGQGTLVTVSS
VL: EIVMTQSPATLSVSPGERATLSCRASQSVSSNLAWYQQKPGQAPRLLIYGASTRATGIPARFSGSGSGTEFTLTISSLQSEDFAVYFCQEYNDWPLYTFGQGTKLEIK

Assays:
Experiment in all cases: ELISA on coated recombinant antigen, half-maximal binding
[1] = biological target: T2, IsdB (iron-regulated surface determinant protein B), recombinant (Staphylococcus aureus, UniProt A6QG30 41-609)
T2 construct: also called recombinant IsdB
T2 sequence (A6QG30 41-609 limits assumed): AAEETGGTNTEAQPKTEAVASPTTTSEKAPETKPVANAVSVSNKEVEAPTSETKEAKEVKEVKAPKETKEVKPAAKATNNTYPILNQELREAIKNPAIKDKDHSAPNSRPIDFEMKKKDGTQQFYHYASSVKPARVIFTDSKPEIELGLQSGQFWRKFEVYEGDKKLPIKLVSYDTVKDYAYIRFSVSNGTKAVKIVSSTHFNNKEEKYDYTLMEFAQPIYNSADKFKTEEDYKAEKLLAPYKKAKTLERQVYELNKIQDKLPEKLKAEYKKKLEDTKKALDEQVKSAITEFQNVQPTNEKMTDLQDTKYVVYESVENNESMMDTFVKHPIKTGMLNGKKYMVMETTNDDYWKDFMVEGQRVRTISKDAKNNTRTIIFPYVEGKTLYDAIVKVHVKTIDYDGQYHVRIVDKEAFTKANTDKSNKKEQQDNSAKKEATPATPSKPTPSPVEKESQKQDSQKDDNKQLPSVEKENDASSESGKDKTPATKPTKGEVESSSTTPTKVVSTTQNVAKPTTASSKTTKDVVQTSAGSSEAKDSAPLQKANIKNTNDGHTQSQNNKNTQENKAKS

[2] = biological target: T3, IsdH (iron-regulated surface determinant protein H), recombinant (Staphylococcus aureus)
T3 construct: also called recombinant IsdH
T3 sequence (Q2FG07 41-864): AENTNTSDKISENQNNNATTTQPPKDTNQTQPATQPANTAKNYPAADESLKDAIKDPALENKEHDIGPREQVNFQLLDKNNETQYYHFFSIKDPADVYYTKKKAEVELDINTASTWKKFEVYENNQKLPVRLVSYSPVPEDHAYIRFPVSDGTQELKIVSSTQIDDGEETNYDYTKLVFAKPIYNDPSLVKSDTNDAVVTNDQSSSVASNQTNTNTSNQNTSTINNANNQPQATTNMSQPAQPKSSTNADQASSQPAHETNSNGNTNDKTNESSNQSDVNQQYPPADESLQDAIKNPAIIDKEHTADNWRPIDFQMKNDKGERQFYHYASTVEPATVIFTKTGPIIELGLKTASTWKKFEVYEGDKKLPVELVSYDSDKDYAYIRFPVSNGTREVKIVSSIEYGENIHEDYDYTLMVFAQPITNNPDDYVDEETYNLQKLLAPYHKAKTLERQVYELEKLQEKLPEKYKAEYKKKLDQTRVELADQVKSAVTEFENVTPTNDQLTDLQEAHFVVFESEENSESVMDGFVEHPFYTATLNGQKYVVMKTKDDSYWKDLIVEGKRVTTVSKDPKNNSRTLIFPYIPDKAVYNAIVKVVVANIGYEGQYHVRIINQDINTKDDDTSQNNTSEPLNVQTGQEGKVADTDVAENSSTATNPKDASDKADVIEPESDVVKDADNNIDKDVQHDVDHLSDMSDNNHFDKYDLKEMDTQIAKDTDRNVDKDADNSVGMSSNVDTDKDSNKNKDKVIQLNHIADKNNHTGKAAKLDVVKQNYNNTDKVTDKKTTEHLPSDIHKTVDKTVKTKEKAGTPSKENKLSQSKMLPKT

[3] = biological target: T1, IsdA (iron-regulated surface …)

| Binder | EC50 [1] [ng/mL] | EC50 [2] [ng/mL] | EC50 [3] [ng/mL] |
| --- | --- | --- | --- |
| B1 | 140 | – | – |
| B2 | 80 | 60 | – |
| B3 | 0.28 | 0.01 | 10 |
| B4 | 1 | – | 70 |
| B5 | 10 | – | 700 |
| B6 | 9500 | – | 260 |
| B7 | – | 3100 | 1600 |
| B8 | 1900 | – | 30 |
| B9 | 12700 | – | 220 |
| B10 | 2 | 2.7 | – |
| B11 | – | 2700 | – |
| B12 | 4100 | – | 80 |
| B13 | 3400 | – | 8200 |
| B14 | 3700 | – | 25100 |
| B15 | 130 | 340 | – |
| B16 | 530 | 950 | 8700 |
| B17 | 7600 | – | 52100 |
